Data taken from publication PMC10104839, “Structural basis for sequence-specific recognition of guide and target strands by the Archaeoglobus fulgidus Argonaute protein” (Scientific Reports, 2023).

Assays:
[1] = biological target: T1, AfAgo (Archaeoglobus fulgidus DSM 4304, UniProt O28951 1-427); experiment: EMSA; EMSA: 40 mM Tris-acetate pH 8.4 (25 C), 1 mM EDTA, 100 mM K-acetate, 0.1 mg/ml BSA, 1 mM DTT, 10% glycerol; 5 nM NA (1 nM 32P + 4 nM cold); 10 min at 25 C; conditions: protein: recombinant; tags: N-terminal His (HisTrap; construct name NHis-Af1318); label: 5'-32P
T1 sequence: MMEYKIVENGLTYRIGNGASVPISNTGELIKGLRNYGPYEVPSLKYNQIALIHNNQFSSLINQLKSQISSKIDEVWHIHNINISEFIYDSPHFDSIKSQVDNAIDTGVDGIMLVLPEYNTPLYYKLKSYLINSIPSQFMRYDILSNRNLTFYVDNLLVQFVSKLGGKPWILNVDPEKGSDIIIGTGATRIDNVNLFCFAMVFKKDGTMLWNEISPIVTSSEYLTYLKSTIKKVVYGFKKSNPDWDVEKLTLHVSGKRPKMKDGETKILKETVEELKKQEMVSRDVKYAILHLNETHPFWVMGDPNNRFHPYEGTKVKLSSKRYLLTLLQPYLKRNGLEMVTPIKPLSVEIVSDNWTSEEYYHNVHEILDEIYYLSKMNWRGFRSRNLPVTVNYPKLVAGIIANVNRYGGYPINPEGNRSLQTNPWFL

[2] = biological target: T1, AfAgo; experiment: EMSA; pre-formed duplex; EMSA: 40 mM Tris-acetate pH 8.4 (25 C), 1 mM EDTA, 100 mM K-acetate, 0.1 mg/ml BSA, 1 mM DTT, 10% glycerol; 5 nM NA (1 nM 32P + 4 nM cold); 10 min at 25 C; conditions: protein: recombinant; tags: N-terminal His (HisTrap; construct name NHis-Af1318); label: 5'-32P; blunt
[3] = biological target: the molecule itself; experiment: crystal structure; AfAgo-DNA oligoduplex complexes, 90-120 uM (as monomer), crystals grown at 4-8 °C; P1 crystals (5'P-ATC DNA) hold two DNA-bound subunits per asymmetric unit; in the P22(1)2(1) crystals (5'P-ATT DNA) the dimer is formed by a crystallographic symmetry operator
[4] = biological target: T1, AfAgo; experiment: EMSA; AfAgo pre-loaded with gRNA (1:2), target titrated; no heparin; EMSA: 40 mM Tris-acetate pH 8.4 (25 C), 1 mM EDTA, 100 mM K-acetate, 0.1 mg/ml BSA, 1 mM DTT, 10% glycerol; 5 nM NA (1 nM 32P + 4 nM cold); 10 min at 25 C; conditions: protein: recombinant; tags: N-terminal His (HisTrap; construct name NHis-Af1318); label: 5'-32P on target; guide nt 1-8 complementary to target 3' end; rest largely unpaired
[5] = biological target: T1, AfAgo; experiment: X-ray crystallography; Mg2+; EMSA: 40 mM Tris-acetate pH 8.4 (25 C), 1 mM EDTA, 100 mM K-acetate, 0.1 mg/ml BSA, 1 mM DTT, 10% glycerol; 5 nM NA (1 nM 32P + 4 nM cold); 10 min at 25 C; conditions: protein: recombinant; tags: N-terminal His (HisTrap; construct name NHis-Af1318); blunt, self-complementary, 2 strand copies
[6] = biological target: T1, AfAgo; experiment: X-ray crystallography; 5 mM Mg2+ in complex preparation; EMSA: 40 mM Tris-acetate pH 8.4 (25 C), 1 mM EDTA, 100 mM K-acetate, 0.1 mg/ml BSA, 1 mM DTT, 10% glycerol; 5 nM NA (1 nM 32P + 4 nM cold); 10 min at 25 C; conditions: protein: recombinant; tags: N-terminal His (HisTrap; construct name NHis-Af1318); blunt, self-complementary, 2 strand copies

ATTGTACACGGCCGAAT (ssDNA, 5'-phosphate) [MZ-1447 ATT ssDNA]
Kd [1]: 236 ± 35 nM

AUUGUACACGGCCGAAU (ssRNA, 5'-phosphate) [MZ-1480 5'P-AUU ssRNA]
Kd [1]: 3.8 ± 0.1 nM

B1: MZ-1447/MZ-1455 dsDNA (dsDNA)
DNA 1: ATTGTACACGGCCGAAT
DNA 2: ATTCGGCCGTGTACAAT
modifications: 5'-phosphate
Kd [2]: 37 ± 17 nM

B2: Archaeoglobus fulgidus Argonaute protein (AfAgo) (natural protein, Archaeoglobus fulgidus DSM 4304)
chain: MMEYKIVENGLTYRIGNGASVPISNTGELIKGLRNYGPYEVPSLKYNQIALIHNNQFSSLINQLKSQISSKIDEVWHIHNINISEFIYDSPHFDSIKSQVDNAIDTGVDGIMLVLPEYNTPLYYKLKSYLINSIPSQFMRYDILSNRNLTFYVDNLLVQFVSKLGGKPWILNVDPEKGSDIIIGTGATRIDNVNLFCFAMVFKKDGTMLWNEISPIVTSSEYLTYLKSTIKKVVYGFKKSNPDWDVEKLTLHVSGKRPKMKDGETKILKETVEELKKQEMVSRDVKYAILHLNETHPFWVMGDPNNRFHPYEGTKVKLSSKRYLLTLLQPYLKRNGLEMVTPIKPLSVEIVSDNWTSEEYYHNVHEILDEIYYLSKMNWRGFRSRNLPVTVNYPKLVAGIIANVNRYGGYPINPEGNRSLQTNPWFL
notes: AfAgo, hypothetical protein from Archaeoglobus fulgidus DSM 4304, GenBank NP_070147.1, cloned in pETDuet-1; also called AfPIWI; Af1318; source: E. coli, purified (Ni2+ HiTrap chelating, RNase A/T1 treatment, HiTrap Heparin, Superdex 200)
binding result [3]: binds

B3: gRNA MZ-1480 + target DNA MZ-1560 (8 nt) (DNA:RNA)
RNA: AUUGUACACGGCCGAAU
DNA: CGGAATATATGTACAAT
modifications: 5'-phosphate
Kd [4]: 7.5 ± 0.4 nM

AGUGUACACGGCCGACU (ssRNA, 5'-phosphate) [MZ-1707 AGU ssRNA]
Kd [1]: 84 ± 2.9 nM

B4: MZ-1480/MZ-1455 RNA/DNA heteroduplex (DNA:RNA)
RNA: AUUGUACACGGCCGAAU
DNA: ATTCGGCCGTGTACAAT
modifications: 5'-phosphate
Kd [2]: 6.1 ± 0.04 nM

B5: MZ-1288 5'-ATT oligoduplex (dsDNA)
DNA 1: ATTGTGGCCACAAT
DNA 2: ATTGTGGCCACAAT
modifications: 5'-phosphate
binding result [5]: binds

B6: gRNA MZ-1480 + target RNA MZ-1556 (8 nt) (dsRNA)
RNA 1: AUUGUACACGGCCGAAU
RNA 2: CGGAAUAUAUGUACAAU
modifications: 5'-phosphate
Kd [4]: 33 ± 4.2 nM

UUUGUACACGGCCGAAA (ssRNA, 5'-phosphate) [MZ-1699 UUU ssRNA]
Kd [1]: 15 ± 2.8 nM

B7: MZ-952 5'-ATC oligoduplex (dsDNA)
DNA 1: ATCGTGGCCACGAT
DNA 2: ATCGTGGCCACGAT
modifications: 5'-phosphate
binding result [6]: binds

AUCGUACACGGCCGGAU (ssRNA, 5'-phosphate) [MZ-1706 AUC ssRNA]
Kd [1]: 16 ± 2.1 nM

B8: MZ-1289 5'-ATT oligoduplex (dsDNA)
DNA 1: ATTGTACGTACAAT
DNA 2: ATTGTACGTACAAT
modifications: 5'-phosphate
binding result [6]: binds

GUUGUACACGGCCGAAC (ssRNA, 5'-phosphate) [MZ-1698 GUU ssRNA]
Kd [1]: 42 ± 2.1 nM

B9: MZ-1480/MZ-1481 dsRNA (dsRNA)
RNA 1: AUUGUACACGGCCGAAU
RNA 2: AUUCGGCCGUGUACAAU
modifications: 5'-phosphate
Kd [2]: 15 ± 0.9 nM

CUUGUACACGGCCGAAG (ssRNA, 5'-phosphate) [MZ-1708 CUU ssRNA]
Kd [1]: 28 ± 2.7 nM
